Data from paper PMC10397247.
Each block holds one binder with its values, some of them ahead of it.

Tests used:
Assay in all cases: two-hybrid library CCNG1;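 also: natural log of median RNA to DNA barcode read ratio; higher means stronger binding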
4H166-bN = molecular target: T1, 4H166-bN
T1 chain: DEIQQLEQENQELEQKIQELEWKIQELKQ

4H2143-bN = molecular target: T2, 4H2143-bN
T2 chain: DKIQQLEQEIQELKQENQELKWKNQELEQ

4H2162-bN = molecular target: T3, 4H2162-bN
T3 chain: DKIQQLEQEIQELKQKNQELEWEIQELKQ

4H2233-bN = molecular target: T4, 4H2233-bN
T4 chain: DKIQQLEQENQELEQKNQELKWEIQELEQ

4H2253-bN = molecular target: T5, 4H2253-bN
T5 chain: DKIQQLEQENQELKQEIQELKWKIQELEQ

4H235-bN = molecular target: T6, 4H235-bN
T6 chain: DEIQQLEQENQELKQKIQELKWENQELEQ

4H2444-bN = molecular target: T7, 4H2444-bN
T7 chain: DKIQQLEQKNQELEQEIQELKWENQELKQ

4H2518-bN = molecular target: T8, 4H2518-bN
T8 chain: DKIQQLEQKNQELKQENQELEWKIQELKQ

4H2585-bN = molecular target: T9, 4H2585-bN
T9 chain: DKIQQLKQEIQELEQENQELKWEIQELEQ

4H264-bN = molecular target: T10, 4H264-bN
T10 chain: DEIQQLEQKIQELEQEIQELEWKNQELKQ

4H2760-bN = molecular target: T11, 4H2760-bN
T11 chain: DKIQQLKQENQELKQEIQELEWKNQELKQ

4H2859-bN = molecular target: T12, 4H2859-bN
T12 chain: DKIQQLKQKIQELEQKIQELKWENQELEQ

4H2931-bN = molecular target: T13, 4H2931-bN
T13 chain: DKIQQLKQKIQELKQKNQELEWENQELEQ

4H3041-bN = molecular target: T14, 4H3041-bN
T14 chain: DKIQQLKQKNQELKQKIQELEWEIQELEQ

4H3297-bN = molecular target: T15, 4H3297-bN
T15 chain: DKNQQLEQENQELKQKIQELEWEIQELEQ

4H3364-bN = molecular target: T16, 4H3364-bN
T16 chain: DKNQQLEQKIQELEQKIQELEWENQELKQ

4H3381-bN = molecular target: T17, 4H3381-bN
T17 chain: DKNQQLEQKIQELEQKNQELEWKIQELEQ

4H349-bN = molecular target: T18, 4H349-bN
T18 chain: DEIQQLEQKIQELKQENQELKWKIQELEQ

4H56-bN = molecular target: T19, 4H56-bN
T19 chain: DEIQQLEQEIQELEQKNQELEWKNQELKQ

4H730-bN = molecular target: T20, 4H730-bN
T20 chain: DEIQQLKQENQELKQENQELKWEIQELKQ

4H796-bN = molecular target: T21, 4H796-bN
T21 chain: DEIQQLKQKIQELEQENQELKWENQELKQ

4H932-bN = molecular target: T22, 4H932-bN
T22 chain: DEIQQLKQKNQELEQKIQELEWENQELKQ

4H949-bN = molecular target: T23, 4H949-bN
T23 chain: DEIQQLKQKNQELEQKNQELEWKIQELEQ

4H1257-bN = molecular target: T24, 4H1257-bN
T24 chain: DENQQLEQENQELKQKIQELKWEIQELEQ

4H1446-bN = molecular target: T25, 4H1446-bN
T25 chain: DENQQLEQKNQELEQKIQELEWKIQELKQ

4H1828-bN = molecular target: T26, 4H1828-bN
T26 chain: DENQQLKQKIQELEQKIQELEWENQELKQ

4H1845-bN = molecular target: T27, 4H1845-bN
T27 chain: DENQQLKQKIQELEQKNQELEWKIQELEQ

4H2442-bN = molecular target: T28, 4H2442-bN
T28 chain: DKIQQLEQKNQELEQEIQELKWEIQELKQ

4H2576-bN = molecular target: T29, 4H2576-bN
T29 chain: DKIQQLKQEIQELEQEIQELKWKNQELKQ

4H2618-bN = molecular target: T30, 4H2618-bN
T30 chain: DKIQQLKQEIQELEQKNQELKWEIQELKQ

4H2667-bN = molecular target: T31, 4H2667-bN
T31 chain: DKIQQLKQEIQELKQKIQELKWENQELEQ

4H2729-bN = molecular target: T32, 4H2729-bN
T32 chain: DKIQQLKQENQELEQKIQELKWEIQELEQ

4H3112-bN = molecular target: T33, 4H3112-bN
T33 chain: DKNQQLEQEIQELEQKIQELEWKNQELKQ

4H3185-bN = molecular target: T34, 4H3185-bN
T34 chain: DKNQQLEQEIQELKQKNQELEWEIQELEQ

4H331-bN = molecular target: T35, 4H331-bN
T35 chain: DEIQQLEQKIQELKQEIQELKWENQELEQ

4H3354-bN = molecular target: T36, 4H3354-bN
T36 chain: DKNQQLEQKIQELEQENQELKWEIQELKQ

4H338-bN = molecular target: T37, 4H338-bN
T37 chain: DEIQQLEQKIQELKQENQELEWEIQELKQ

4H3427-bN = molecular target: T38, 4H3427-bN
T38 chain: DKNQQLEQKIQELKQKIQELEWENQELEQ

4H3782-bN = molecular target: T39, 4H3782-bN
T39 chain: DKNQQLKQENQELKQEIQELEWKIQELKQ

4H3855-bN = molecular target: T40, 4H3855-bN
T40 chain: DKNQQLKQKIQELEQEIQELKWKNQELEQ

4H4001-bN = molecular target: T41, 4H4001-bN
T41 chain: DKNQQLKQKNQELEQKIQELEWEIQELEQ

4H454-bN = molecular target: T42, 4H454-bN
T42 chain: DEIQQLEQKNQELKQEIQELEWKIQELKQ

4H568-bN = molecular target: T43, 4H568-bN
T43 chain: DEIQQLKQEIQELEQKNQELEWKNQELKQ

4H607-bN = molecular target: T44, 4H607-bN
T44 chain: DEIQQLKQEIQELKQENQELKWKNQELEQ

4H687-bN = molecular target: T45, 4H687-bN
T45 chain: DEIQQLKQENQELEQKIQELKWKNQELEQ

4H717-bN = molecular target: T46, 4H717-bN
T46 chain: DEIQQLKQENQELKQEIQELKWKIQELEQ

4H72-bN = molecular target: T47, 4H72-bN
T47 chain: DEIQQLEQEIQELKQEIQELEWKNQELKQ

4H754-bN = molecular target: T48, 4H754-bN
T48 chain: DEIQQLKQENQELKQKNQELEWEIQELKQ

4H797-bN = molecular target: T49, 4H797-bN
T49 chain: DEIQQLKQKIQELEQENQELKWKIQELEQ

4H883-bN = molecular target: T50, 4H883-bN
T50 chain: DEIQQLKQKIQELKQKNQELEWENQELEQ

4H908-bN = molecular target: T51, 4H908-bN
T51 chain: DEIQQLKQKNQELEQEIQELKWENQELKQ

4H918-bN = molecular target: T52, 4H918-bN
T52 chain: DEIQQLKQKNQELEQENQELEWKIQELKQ

4H953-bN = molecular target: T53, 4H953-bN
T53 chain: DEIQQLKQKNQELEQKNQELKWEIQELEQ

4H967-bN = molecular target: T54, 4H967-bN
T54 chain: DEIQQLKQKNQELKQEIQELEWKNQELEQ

P3A-bN = molecular target: T55, P3A-bN
T55 chain: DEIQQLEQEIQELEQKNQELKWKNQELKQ

interaction score (4H166-bN): 0.12
interaction score (4H2143-bN): 0.201
interaction score (4H2162-bN): 0.326
interaction score (4H2233-bN): 0.155
interaction score (4H2253-bN): -0.769
interaction score (4H235-bN): -0.365
interaction score (4H2444-bN): 0.231
interaction score (4H2518-bN): 1.34
interaction score (4H2585-bN): -0.823
interaction score (4H264-bN): 0.717
interaction score (4H2760-bN): 0.225
interaction score (4H2859-bN): 0.54
interaction score (4H2931-bN): -0.274
interaction score (4H3041-bN): 1.6
interaction score (4H3297-bN): 1.54
interaction score (4H3364-bN): -0.154
interaction score (4H3381-bN): 0.0552
interaction score (4H349-bN): -0.759
interaction score (4H56-bN): -0.199
interaction score (4H730-bN): -0.71
interaction score (4H796-bN): -1.95
interaction score (4H932-bN): -0.134
interaction score (4H949-bN): -0.601
Binder: DEIQQLEQENQELEQKIQELEWKIQELKQ [4H166-bN]

interaction score (4H1257-bN): -1.67
interaction score (4H1446-bN): -0.533
interaction score (4H1828-bN): -0.561
interaction score (4H1845-bN): -0.503
interaction score (4H2442-bN): -1.13
interaction score (4H2576-bN): -0.613
interaction score (4H2618-bN): -0.173
interaction score (4H2667-bN): -1.35
interaction score (4H2729-bN): -0.506
interaction score (4H3112-bN): -0.702
interaction score (4H3185-bN): -1.45
interaction score (4H331-bN): -1.48
interaction score (4H3354-bN): -1.08
interaction score (4H338-bN): -0.857
interaction score (4H3427-bN): -0.768
interaction score (4H3782-bN): 1.9
interaction score (4H3855-bN): -0.77
interaction score (4H4001-bN): -1.89
interaction score (4H454-bN): 0.889
interaction score (4H568-bN): -1.28
interaction score (4H607-bN): -0.95
interaction score (4H687-bN): -1.24
interaction score (4H717-bN): -1.05
interaction score (4H72-bN): -1.99
interaction score (4H754-bN): -1.46
interaction score (4H797-bN): -0.946
interaction score (4H883-bN): -1.31
interaction score (4H908-bN): -1.39
interaction score (4H918-bN): -1.21
interaction score (4H953-bN): -0.733
interaction score (4H967-bN): -0.47
interaction score (P3A-bN): -1.36
Binder: DENQQLEQENQELKQKIQELKWEIQELEQ [4H1257-bN]
